From PMC8204385 (Biophysical Journal, 2021)

B1: Human SHP-1 with an N-terminal 6x His tag (enzyme)
chain: not shown
B2: SLAM peptide (cytoplasmic tail of SLAM, 77 aa, singly phosphorylated) (peptide)
peptide: QLRRRGKTNHYQTTVEKKSLTIYAQVQKPGPLQKKLDSFPAQDPCTTIYVAATEPVPESVQETNSITVYASVTLPES
modifications: biotin on the N-terminus; phosphotyrosine in the ITSM (position 327 in the native sequence)
notes: cytoplasmic tail of SLAM, 77 aa; only the last tyrosine (327) is phosphorylated; source: synthetic peptide (Peptide Protein Research)

How the values were obtained:
[1] = target: B2; experiment: cell-based or functional assay
[2] = target: B1; experiment: SPR; biotinylated peptide on streptavidin-coupled CM5 chip (25-100 RU), SHP-1 injected 45 s at 10 uL/min; Biacore T200; 37°C; 10 mM HEPES pH 7.4, 150 mM NaCl, 3 mM EDTA, 0.05% Tween 20, 1 mM dithiothreitol; constants from the fit of the extended MPDPDE model; conditions: both partners purified

ratio kcat(tethered)/kcat(solution) from the SPR assay (allosteric activation of SHP-1) [1]	Kd [2]	koff [2]	kon [2]	Binder
6.2 fold				B1
	130 µM	1.7 s⁻¹	20000 M⁻¹ s⁻¹	B2
